Results published in publication PMC12130729, “CD98hc, a novel of galectin-8 receptor, binds to galectin-8 in an N-glycosylation-dependent manner” (Acta Biochimica et Biophysica Sinica, 2025).
Blank lines part the entries; values can stand above or below the molecule they belong to.

Assays:
[1] = molecular target: Extracellular domain of CD98hc (CD98hc-ED), His-tagged (human) (UniProt P08195); assay: MST; His-tagged CD98hc-ED (50 nM) labelled with RED-tris-NTA 2nd generation as target; Gal-8, Gal-8N or Gal-8C titrated 50 μM to 12.21 nM (1:1 dilution series); Monolith NT.115, room temperature, LED 60%, MST power medium; KD fit; three independent experiments
[2] = molecular target: T1, Extracellular domain of CD98hc (CD98hc-ED), His-tagged (human, UniProt P08195 105-529, N-glycosylated (glycosylated CD98hc-ED)); assay: as above; conditions: both partners purified
T1 construct: CD98hc, human (cDNA from HeLa cells), extracellular domain; the printed primers encode an added start Met followed by RAPRCR, and end with RFPYAA (the C-terminus) followed by six His codons and a stop; His6 and its C-terminal position are read from the reverse primer; the text says only 'with a His-tag'; No signal peptide is encoded by the primers. 'Free CD98hc-ED' is this protein after PNGase F …
T1 sequence (looked up): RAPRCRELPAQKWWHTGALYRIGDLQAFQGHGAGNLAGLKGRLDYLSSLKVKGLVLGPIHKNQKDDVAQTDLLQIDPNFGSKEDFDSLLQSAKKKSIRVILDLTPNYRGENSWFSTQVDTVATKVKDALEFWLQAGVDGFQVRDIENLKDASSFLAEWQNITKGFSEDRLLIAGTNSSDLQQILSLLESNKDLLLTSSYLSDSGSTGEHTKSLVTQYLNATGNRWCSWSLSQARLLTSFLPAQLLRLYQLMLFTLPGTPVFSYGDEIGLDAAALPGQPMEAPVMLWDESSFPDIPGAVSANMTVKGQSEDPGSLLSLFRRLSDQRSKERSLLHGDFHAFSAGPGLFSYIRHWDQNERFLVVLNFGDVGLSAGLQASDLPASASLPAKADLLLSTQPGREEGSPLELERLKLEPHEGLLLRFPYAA

Kd [1]: 1510 nM
Molecule: Recombinant Gal-8 (His-Gal-8) (from UniProt O00214 1-317) (natural protein)

Kd [2]: 220 ± 30 nM
B1: Recombinant Gal-8N (His-Gal-8N) (domain or fragment, human, UniProt O00214 1-152, looked up)
chain: MMLSLNNLQNIIYNPVIPFVGTIPDQLDPGTLIVIRGHVPSDADRFQVDLQNGSSMKPRADVAFHFNPRFKRAGCIVCNTLINEKWGREEITYDTPFKREKSFEIVIMVLKDKFQVAVNGKHTLLYGHRIGPEKIDTLGIYGKVNIHSIGFS
notes: Galectin-8, human, N-terminal carbohydrate recognition domain (Gal-8N); also called N-terminal carbohydrate recognition domain of Gal-8; source: E. coli BL21 (DE3) pLysS, as previously described by Si et al. [9]

Kd [2]: 10700 ± 1690 nM
B2: Recombinant Gal-8C (His-Gal-8C) (domain or fragment, human, UniProt O00214 187-317, looked up)
chain: FAARLNTPMGPGRTVVVKGEVNANAKSFNVDLLAGKSKDIALHLNPRLNIKAFVRNSFLQESWGEEERNITSFPFSPGMYFEMIIYCDVREFKVAVNGVHSLEYKHRFKELSSIDTLEINGDIHLLEVRSW
notes: Galectin-8, human, C-terminal carbohydrate recognition domain (Gal-8C); also called C-terminal carbohydrate recognition domain of Gal-8; source: E. coli BL21 (DE3) pLysS, as previously described by Si et al. [9]
